Source: publication doi:10.64898/2025.12.18.695067

Molecular target: DNAJB1 (recombinant, as used in SPR) (human) (UniProt P25685)
Assay: SPR

Chain of UniProt P25685 (P25685 whole entry): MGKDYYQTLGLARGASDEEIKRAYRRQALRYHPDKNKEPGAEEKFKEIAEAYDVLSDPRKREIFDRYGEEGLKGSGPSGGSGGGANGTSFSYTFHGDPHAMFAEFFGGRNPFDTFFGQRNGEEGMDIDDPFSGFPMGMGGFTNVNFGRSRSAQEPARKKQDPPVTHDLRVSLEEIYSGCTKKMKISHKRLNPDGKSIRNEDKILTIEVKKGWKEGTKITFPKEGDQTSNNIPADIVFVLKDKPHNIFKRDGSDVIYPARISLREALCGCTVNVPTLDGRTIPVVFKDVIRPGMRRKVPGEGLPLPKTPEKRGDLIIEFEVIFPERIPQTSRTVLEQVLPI

Kd [nM]	Substance
1830	K27-linked diubiquitin (chemically synthesized; tag not told for the experiment) (from UniProt P0CG48 1-76; P0CG48 1-76)
3420	K27-linked tetraubiquitin (synthetic) (from UniProt P0CG48 1-76)
